# In paper PMC9772109:
# Biological target: H10 HA trimer of A/Jiangxi-Donghu/346/2013 (H10 JD13) (influenza A virus A/Jiangxi-Donghu/346/2013 (H10N8))
# Experiment: negative stain EM, 3D reconstruction
substance,measurement,value
H10 HA trimer of A/Jiangxi-Donghu/346/2013 (H10 JD13) (natural protein),stoichiometry N,3
